Experiment [1] deals with T1, chimeric recombinant human ACVR2A-Fc (human, UniProt P27037 20-135).
T1 construct: activin receptor type 2A (ACVR2A), human, part fused to Fc; Probably the extracellular domain fused to Fc (surmised); also called rhACVR2A-Fc; rhACVR2A
Kind of experiment: SPR; Biacore T200; receptor-Fc captured on a Protein A sensor chip (~70 RU); rhGDF3 flowed over, two-fold dilutions 12.5 nM-0.391 nM; 20 mM HEPES pH 7.4, 350 mM NaCl, 3.4 mM EDTA, 0.05% P-20, 0.5 mg/ml BSA, 25 °C; 1:1 fit model with mass transport limitations. The settings on record: both partners purified. On the technique in general: SPR reads the build-up and loss of mass on a sensor chip optically.

Experiment [2] addresses T2, chimeric recombinant human ACVR2B-Fc (human, UniProt Q13705 19-137).
T2 construct: activin receptor type 2B (ACVR2B), human, part fused to Fc; Probably the extracellular domain fused to Fc (surmised); also called rhACVR2B-Fc; rhACVR2B
T2 sequence (looked up): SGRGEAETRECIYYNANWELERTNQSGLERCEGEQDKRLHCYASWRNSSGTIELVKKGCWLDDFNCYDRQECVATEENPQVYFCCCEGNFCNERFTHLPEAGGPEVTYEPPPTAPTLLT
Described as above. The note with it: both partners purified.

Experiment [3] concerns the target T3, Fc-chimera of the human type II BMP receptor (rhBMPR2-Fc) (human, UniProt Q13873 27-150).
T3 construct: type II BMP receptor BMPR2, human, part fused to Fc; Probably the extracellular domain fused to human IgG1 Fc (surmised); also called rhBMPRII-Fc; BMPRII
T3 sequence (looked up): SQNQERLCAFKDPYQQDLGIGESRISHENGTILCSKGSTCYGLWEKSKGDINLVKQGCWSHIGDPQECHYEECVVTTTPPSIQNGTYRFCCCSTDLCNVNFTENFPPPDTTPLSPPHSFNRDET
Described as above. The settings on record: both partners purified.

The target of experiment [4] is T4, SB-431542-resistant rat ALK5 S278T (Alk5-ST) (rat, UniProt P80204 30-501, S278T).
T4 sequence (looked up): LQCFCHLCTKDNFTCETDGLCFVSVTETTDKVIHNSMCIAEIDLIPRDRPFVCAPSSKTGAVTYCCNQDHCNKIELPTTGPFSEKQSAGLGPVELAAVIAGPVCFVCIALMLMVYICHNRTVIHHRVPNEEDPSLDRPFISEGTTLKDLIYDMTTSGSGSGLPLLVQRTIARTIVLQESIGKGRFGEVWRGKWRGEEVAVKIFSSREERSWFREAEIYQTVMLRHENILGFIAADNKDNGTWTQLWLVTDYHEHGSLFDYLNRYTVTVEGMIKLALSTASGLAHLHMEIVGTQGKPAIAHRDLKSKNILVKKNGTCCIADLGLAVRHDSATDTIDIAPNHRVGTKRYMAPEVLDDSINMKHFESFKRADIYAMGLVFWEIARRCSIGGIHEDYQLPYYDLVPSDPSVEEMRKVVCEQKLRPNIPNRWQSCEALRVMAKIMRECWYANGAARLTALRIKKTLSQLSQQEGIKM
Kind of experiment: cell-based or functional assay.

For experiment [5], the target named is T3, Fc-chimera of the human type II BMP …. Kind of experiment: ITC; Nano ITC Standard Volume; 250 ng/mL of rhBMPR2-Fc, rhBMP2, rmBMP4 or rhBMP9 titrated into 250 ng/mL of rmGDF3; 10 injections of 8 µL at 350 s intervals, 300 rpm. The note with it: both partners purified.
For experiment [6] the target is unchanged. The experiment in a line: BLI; Gator Plus; capturing receptor (rhBMPR2-Fc) at 10 µg/mL on anti-human IgG Fc probes; GDF3 in solution (rhGDF3 50 nM; rmGDF3 25-100 nM); PBS, 1 mg/mL BSA, 0.1% Tween20, pH 7.4, 25 °C. The note with it: both partners purified. A general note: Biolayer interferometry detects binding as a change in optical thickness at a sensor tip.

T1 sequence (P27037 20-135, change not shown): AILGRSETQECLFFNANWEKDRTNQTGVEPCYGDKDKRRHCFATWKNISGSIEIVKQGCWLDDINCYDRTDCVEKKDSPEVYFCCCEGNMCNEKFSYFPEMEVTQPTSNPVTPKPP

B1: recombinant human GDF3 (Growth Differentiation Factor 3) (ligand, UniProt Q9NR23 251-364, looked up)
chain: AAIPVPKLSCKNLCHRHQLFINFRDLGWHKWIIAPKGFMANYCHGECPFSLTISLNSSNYAFMQALMHAVDPEIPQAVCIPTKLSPISMLYQDNNDNVILRHYEDMVVDECGCG
notes: Growth Differentiation Factor 3, human, recombinant; also called rhGDF3; human rGDF3
For B1, the figures for the equilibrium dissociation constant (Kd) in experiment [1], in experiment [2] and in experiment [3] were 1.26 nM, 0.332 nM and 0.601 nM, respectively. Moreover, the koff was determined as 0.000405 s⁻¹ in experiment [1], 0.00038 s⁻¹ in experiment [2] and 0.00149 s⁻¹ in experiment [3]. Also, the results for the kon in experiment [1], in experiment [2] and in experiment [3] were 1.21e+06 M⁻¹ s⁻¹, 2.12e+06 M⁻¹ s⁻¹ and 2.19e+06 M⁻¹ s⁻¹, respectively.

B2: recombinant mouse GDF3 (Growth Differentiation Factor 3) (ligand, UniProt Q07104 253-366, looked up)
chain: AAISVPKGFCRNFCHRHQLFINFQDLGWHKWVIAPKGFMANYCHGECPFSMTTYLNSSNYAFMQALMHMADPKVPKAVCVPTKLSPISMLYQDSDKNVILRHYEDMVVDECGCG
notes: Growth Differentiation Factor 3, mouse, recombinant; also called rmGDF3; mouse rGDF3; source: CHO cell-derived
Take B2: the “SBE-luciferase (CAGA12) reporter activity in HEK-293 cells expressing Alk5-ST, rmGDF3 0, 250, 500 or 1000 ng/mL with SB-431542” value in experiment [4] turned out to be 70 fold. The molecule further came in with a Kd in experiment [5] of 811 nM. In addition, in experiment [6], the dissociation constant Kd came to 13.1 nM, the koff was 0.00483 s⁻¹ and the kon is 370000 M⁻¹ s⁻¹.

As a reminder, the Kd is a measure of binding affinity in units of concentration. The term koff denotes the first-order rate constant of dissociation. Usually kon stands for the rate constant with which the complex forms.
